From patent US5503978

How the values were obtained:
[1] = test system: AMV reverse transcriptase (Avian myeloblastosis virus); conditions: intramolecular 3' extension to end of template; 100 nM RT
[2] = target: T1, HIV-1 reverse transcriptase (HIV-1) (UniProt P04585+P04585); assay: inhibition; conditions: almost no inhibition at 81 nM
[3] = target: T1, HIV-1 reverse transcriptase (HIV-1); assay: filter; conditions: apparent Kd of degenerate library

Sequence	activity [1] [% initiation]	Ki [2] [µM]	Kd [3] [µM]
ATCCGCCTGATTAGCGATACTTACGTGAGCGTGCTGTCCCCTAAAGGTGATACGTCACTTGAGCAAAATCACCTGCAGGGG [RT26]	50	–	–
CCCCTGCAGGTGATTTTGCTCAAGTNNNNNNNNNNNNNNNNNNNNNNNNNNNNNNNNNNNAGTATCGCTAATCAGGCGGAT [R0 degenerate 35N ssDNA library]	–	> 3	1.4
